From PMC12309418 (2025)

What was measured:
[1] = target: T1, PLS2 RD-ABD1 (a.a. 1–385) (human, UniProt P13796 1-385); assay: FP; pH 7.0
T1 chain: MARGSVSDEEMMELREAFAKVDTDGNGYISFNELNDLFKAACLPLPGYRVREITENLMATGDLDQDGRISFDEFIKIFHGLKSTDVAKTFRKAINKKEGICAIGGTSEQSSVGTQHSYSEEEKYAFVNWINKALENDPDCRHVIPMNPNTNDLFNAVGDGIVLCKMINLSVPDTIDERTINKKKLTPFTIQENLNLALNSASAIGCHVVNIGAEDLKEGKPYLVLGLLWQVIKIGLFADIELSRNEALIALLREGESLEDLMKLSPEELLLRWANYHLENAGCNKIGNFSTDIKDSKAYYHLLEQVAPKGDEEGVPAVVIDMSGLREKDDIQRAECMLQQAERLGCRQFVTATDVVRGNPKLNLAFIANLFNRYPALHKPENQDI

[2] = target: T1, PLS2 RD-ABD1 (a.a. 1–385); assay: FP; pH 8.0

B1: fluorescein-maleimide labeled PLS2 ABD2 (FM-ABD2) (domain or fragment)
chain: PENQDIDWGALEGETREERTFRNWMNSLGVNPRVNHLYSDLSDALVIFQLYEKIKVPVDWNRVNKPPYPKLGGNMKKLENCNYAVELGKNQAKFSLVGIGGQDLNEGNRTLTLALIWQLMRRYTLNILEEIGGGQKVNDDIIVNWVNETLREAKKSSSISSFKDPKISTSLPVLDLIDAIQPGSINYDLLKTENLNDDEKLNNAKYAISMARKIGARVYALPEDLVEVNPKMVMTVFACLMGKGM
modifications: fluorescein maleimide (FM) label; labeled residue not stated
A Kd [1] of 4.5 nM and a Kd [2] of 8.7 nM were found for B1 in this work.
